Measured values reported in patent US20070037156.

Test system: gelatin

Substance | MMP-9 activity by zymography (gelatin in the polyacrylamide gel)
279Arg rare variant of MMP-9 (matrix metalloproteinase-9) | Activity in both lanes 1 and 2 of FIG. 4 is similar
279Gln common variant of MMP-9 (matrix metalloproteinase-9) | Activity in both lanes 1 and 2 of FIG. 4 is similar
